# Experimental data as given in IntAct's records for PubMed 29892012.
# B1: Keratin, type I cuticular Ha8 (Homo sapiens), O76015 (parent)
# chain: MTSSYSSSSCPLGCTMAPGARNVSVSPIDIGCQPGAEANIAPMCLLANVAHANRVRVGSTPLGRPSLCLPPTCHTACPLPGTCHIPGNIGICGAYGENTLNGHEKETMQFLNDRLANYLEKVRQLEQENAELEATLLERSKCHESTVCPDYQSYFHTIEELQQKILCSKAENARLIVQIDNAKLAADDFRIKLESERSLRQLVEADKCGTQKLLDDATLAKADLEAQQESLKEEQLSLKSNHEQEVKILRSQLGEKLRIELDIEPTIDLNRVLGEMRAQYEAMLETNRQDVEQWFQAQSEGISLQDMSCSEELQCCQSEILELRCTVNALEVERQAQHTLKDCLQNSLCEAEDRFGTELAQMQSLISNVEEQLSEIRADLERQNQEYQVLLDVKTRLENEIATYRNLLESEDCKLPCNPCSTSPSCVTAPCAPRPSCGPCTTCGPTCGASTTGSRF
# partner: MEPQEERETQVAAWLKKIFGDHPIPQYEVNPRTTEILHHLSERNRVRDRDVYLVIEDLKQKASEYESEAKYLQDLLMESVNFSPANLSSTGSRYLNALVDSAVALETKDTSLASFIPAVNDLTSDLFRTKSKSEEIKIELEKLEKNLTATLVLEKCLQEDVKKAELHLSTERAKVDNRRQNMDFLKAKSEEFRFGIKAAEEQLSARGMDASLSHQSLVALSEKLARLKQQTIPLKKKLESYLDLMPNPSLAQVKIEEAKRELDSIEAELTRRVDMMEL
# B2: Pre-B-cell leukemia transcription factor 4 (Homo sapiens), Q9BYU1 (parent)
# chain: MAAPPRPAPSPPAPRRLDTSDVLQQIMAITDQSLDEAQARKHALNCHRMKPALFSVLCEIKEKTVVSIRGIQDEDPPDAQLLRLDNMLLAEGVCRPEKRGRGGAVARAGTATPGGCPNDNSIEHSDYRAKLSQIRQIYHSELEKYEQACREFTTHVTNLLQEQSRMRPVSPKEIERMVGAIHGKFSAIQMQLKQSTCEAVMTLRSRLLDARRKRRNFSKQATEVLNEYFYSHLNNPYPSEEAKEELARKGGLTISQVSNWFGNKRIRYKKNMGKFQEEATIYTGKTAVDTTEVGVPGNHASCLSTPSSGSSGPFPLPSAGDAFLTLRTLASLQPPPGGGCLQSQAQGSWQGATPQPATASPAGDPGSINSSTSN
# partner: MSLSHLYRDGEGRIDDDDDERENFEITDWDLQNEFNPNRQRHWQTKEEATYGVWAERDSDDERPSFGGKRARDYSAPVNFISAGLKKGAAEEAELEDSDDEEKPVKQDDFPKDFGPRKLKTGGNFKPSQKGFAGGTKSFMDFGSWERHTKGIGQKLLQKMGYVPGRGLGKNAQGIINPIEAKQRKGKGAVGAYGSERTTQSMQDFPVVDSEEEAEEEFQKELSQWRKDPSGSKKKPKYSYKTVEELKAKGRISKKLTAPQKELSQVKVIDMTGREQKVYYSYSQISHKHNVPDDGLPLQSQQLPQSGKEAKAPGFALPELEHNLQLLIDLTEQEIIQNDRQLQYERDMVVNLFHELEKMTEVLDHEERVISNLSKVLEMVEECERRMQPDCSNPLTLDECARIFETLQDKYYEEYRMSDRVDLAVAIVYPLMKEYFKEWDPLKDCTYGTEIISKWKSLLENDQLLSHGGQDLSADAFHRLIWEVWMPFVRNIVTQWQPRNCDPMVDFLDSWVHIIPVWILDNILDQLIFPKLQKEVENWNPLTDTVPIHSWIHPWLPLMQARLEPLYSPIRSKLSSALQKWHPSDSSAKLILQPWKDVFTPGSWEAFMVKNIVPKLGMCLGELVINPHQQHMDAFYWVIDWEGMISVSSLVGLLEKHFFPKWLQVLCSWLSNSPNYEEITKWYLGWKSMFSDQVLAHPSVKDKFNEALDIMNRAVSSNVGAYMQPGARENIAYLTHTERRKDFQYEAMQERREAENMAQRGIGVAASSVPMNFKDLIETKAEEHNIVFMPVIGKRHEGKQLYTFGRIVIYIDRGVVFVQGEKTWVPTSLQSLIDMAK
# B3: Ribosome assembly protein METTL17, mitochondrial (Homo sapiens), Q9H7H0 (parent)
# chain: MAAALKCLLTLGRWCPGLGVAPQARALAALVPGVTQVDNKSGFLQKRPHRQHPGILKLPHVRLPQALANGAQLLLLGSAGPTMENQVQTLTSYLWSRHLPVEPEELQRRARHLEKKFLENPDLSQTEEKLRGAVLHALRKTTYHWQELSYTEGLSLVYMAARLDGGFAAVSRAFHEIRARNPAFQPQTLMDFGSGTGSVTWAAHSIWGQSLREYMCVDRSAAMLVLAEKLLKGGSESGEPYIPGVFFRQFLPVSPKVQFDVVVSAFSLSELPSKADRTEVVQTLWRKTGHFLVLVENGTKAGHSLLMDARDLVLKGKEKSPLDPRPGFVFAPCPHELPCPQLTNLACSFSQAYHPIPFSWNKKPKEEKFSMVILARGSPEEAHRWPRITQPVLKRPRHVHCHLCCPDGHMQHAVLTARRHGRDLYRCARVSSWGDLLPVLTPSAFPPSTAQDPSES
# partner: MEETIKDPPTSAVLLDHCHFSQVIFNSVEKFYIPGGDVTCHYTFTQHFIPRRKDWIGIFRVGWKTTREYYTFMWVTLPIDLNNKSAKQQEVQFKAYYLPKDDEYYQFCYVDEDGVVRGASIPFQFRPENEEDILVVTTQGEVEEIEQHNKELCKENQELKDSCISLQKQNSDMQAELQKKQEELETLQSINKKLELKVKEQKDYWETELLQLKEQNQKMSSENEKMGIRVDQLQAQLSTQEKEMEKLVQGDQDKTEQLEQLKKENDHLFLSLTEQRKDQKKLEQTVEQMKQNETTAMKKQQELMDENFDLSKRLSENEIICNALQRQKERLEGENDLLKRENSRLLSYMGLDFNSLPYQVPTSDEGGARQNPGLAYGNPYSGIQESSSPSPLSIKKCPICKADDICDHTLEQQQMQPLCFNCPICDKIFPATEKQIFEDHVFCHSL
# B4: BTB/POZ domain-containing protein KCTD14 (Homo sapiens), Q9BQ13 (parent)
# chain: MWQGCAVERPVGRMTSQTPLPQSPRPRRPTMSTVVELNVGGEFHTTTLGTLRKFPGSKLAEMFSSLAKASTDAEGRFFIDRPSTYFRPILDYLRTGQVPTQHIPEVYREAQFYEIKPLVKLLEDMPQIFGEQVSRKQFLLQVPGYSENLELMVRLARAEAITARKSSVLVCLVETEEQDAYYSEVLCFLQDKKMFKSVVKFGPWKAVLDNSDLMHCLEMDIKAQGYKVFSKFYLTYPTKRNEFHFNIYSFTFTWW
# B5: Protein VAC14 homolog (Homo sapiens), Q08AM6 (parent)
# chain: MNPEKDFAPLTPNIVRALNDKLYEKRKVAALEIEKLVREFVAQNNTVQIKHVIQTLSQEFALSQHPHSRKGGLIGLAACSIALGKDSGLYLKELIEPVLTCFNDADSRLRYYACEALYNIVKVARGAVLPHFNVLFDGLSKLAADPDPNVKSGSELLDRLLKDIVTESNKFDLVSFIPLLRERIYSNNQYARQFIISWILVLESVPDINLLDYLPEILDGLFQILGDNGKEIRKMCEVVLGEFLKEIKKNPSSVKFAEMANILVIHCQTTDDLIQLTAMCWMREFIQLAGRVMLPYSSGILTAVLPCLAYDDRKKSIKEVANVCNQSLMKLVTPEDDELDELRPGQRQAEPTPDDALPKQEGTASGGPDGSCDSSFSSGISVFTAASTERAPVTLHLDGIVQVLNCHLSDTAIGMMTRIAVLKWLYHLYIKTPRKMFRHTDSLFPILLQTLSDESDEVILKDLEVLAEIASSPAGQTDDPGPLDGPDLQASHSELQVPTPGRAGLLNTSGTKGLECSPSTPTMNSYFYKFMINLLKRFSSERKLLEVRGPFIIRQLCLLLNAENIFHSMADILLREEDLKFASTMVHALNTILLTSTELFQLRNQLKDLKTLESQNLFCCLYRSWCHNPVTTVSLCFLTQNYRHAYDLIQKFGDLEVTVDFLAEVDKLVQLIECPIFTYLRLQLLDVKNNPYLIKALYGLLMLLPQSSAFQLLSHRLQCVPNPELLQTEDSLKAAPKSQKADSPSIDYAELLQHFEKVQNKHLEVRHQRSGRGDHLDRRVVL
# partner: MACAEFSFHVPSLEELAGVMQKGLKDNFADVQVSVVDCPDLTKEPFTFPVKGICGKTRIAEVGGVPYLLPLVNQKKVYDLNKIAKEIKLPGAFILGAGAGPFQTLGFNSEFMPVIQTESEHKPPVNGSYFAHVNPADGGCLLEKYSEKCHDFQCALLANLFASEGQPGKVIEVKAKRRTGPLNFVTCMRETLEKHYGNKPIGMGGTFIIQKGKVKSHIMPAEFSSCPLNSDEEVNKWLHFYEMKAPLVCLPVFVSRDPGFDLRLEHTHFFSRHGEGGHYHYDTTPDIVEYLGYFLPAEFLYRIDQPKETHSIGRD
# Variants of: B1
# Conditions: with haus1_human HAUS1, Q96CS2
row,Variant,effect of a mutation on the interaction
1,D306A,with no effect

# Variants of: B1
# Conditions: with haus1_human HAUS1, Q96CS2
# Remark: another data set of the same source
row,Variant,effect of a mutation on the interaction
1,N270K,with no effect

# Variants of: B2
# Conditions: with tfp11_human TFIP11, Q9UBB9
row,Variant,effect of a mutation on the interaction
1,A247T,with no effect

# Variants of: B3
# Conditions: with caco2_human CALCOCO2, Q13137
row,Variant,effect of a mutation on the interaction
1,R212H,disrupting interaction strength

# Variants of: B4
# Conditions: with stk16_human STK16, O75716
# stk16_human STK16, O75716, sequence (O75716 whole entry): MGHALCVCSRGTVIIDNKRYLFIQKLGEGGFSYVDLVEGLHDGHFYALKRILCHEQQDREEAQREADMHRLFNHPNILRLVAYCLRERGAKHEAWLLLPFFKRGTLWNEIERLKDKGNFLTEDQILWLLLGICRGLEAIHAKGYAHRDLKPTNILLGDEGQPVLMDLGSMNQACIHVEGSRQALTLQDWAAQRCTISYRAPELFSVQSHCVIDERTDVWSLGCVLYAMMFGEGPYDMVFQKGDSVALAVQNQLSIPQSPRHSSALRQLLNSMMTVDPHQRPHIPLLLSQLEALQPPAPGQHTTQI
row,Variant,effect of a mutation on the interaction
1,V168M,disrupting interaction strength

# Variants of: B5
# Conditions: with ck054_human C11orf54, Q9H0W9
row,Variant,effect of a mutation on the interaction
1,A127S,with no effect
